Experimental data reported in article PMC5318444.

Assays:
[1] = biological target: T1, ArcA (Escherichia coli (uropathogenic CFT073?)) (UniProt P0A9Q2); assay: EMSA; details: 10 mM Tris pH 7.5, 1 mM EDTA, 1 mM DTT, 50 mM KCl, 50 mM MgCl2, 1 ug/ml BSA; 10 nM DNA, protein 0-240 nM; 30 min room temperature (ArcA, RpoN) …
T1 sequence: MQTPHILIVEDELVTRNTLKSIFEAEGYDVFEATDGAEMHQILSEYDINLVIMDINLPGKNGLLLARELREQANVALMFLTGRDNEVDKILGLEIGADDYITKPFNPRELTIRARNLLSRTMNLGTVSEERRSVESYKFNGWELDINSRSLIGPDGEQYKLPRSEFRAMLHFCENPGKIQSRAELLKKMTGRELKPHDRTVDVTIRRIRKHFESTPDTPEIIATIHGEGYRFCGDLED

[2] = test system: RpoN (sigma54) (Escherichia coli (CFT073?)), ORF:8ae15e91; assay: EMSA; details: 10 mM Tris pH 7.5, 1 mM EDTA, 1 mM DTT, 50 mM KCl, 50 mM MgCl2, 1 ug/ml BSA; 10 nM DNA, protein 0-240 nM; 30 min room temperature (ArcA, RpoN) …

“ATCTGTGTGGTAAGAGAATCACCTTTTATTTACTGTGCGGAAAACCGCGCACAAAATAAAAAGAATAAATAATAAAATCATTAAATAACAAAGCGTTATTAAAAAATTAAAGATGGCATAGCTCCTGCAATAGCCAGGCAGGTTTTTTATTTTTCACAATGAGGTGAATATGTCATCAATATCCCATGGCGCACCACAAAAGCGTCGAATTATCCCTAATCCCGGCCTGTGGTT (double strand) [c5038 promoter probe]” was tested, and the binding [1] was “no binding” and the binding [2] was “binds”.
For “ATGTTAAGCATGATAACGCCTTTTAGGGGCAATTTAAAAGTTGGCACAGATTTCGCTTTATCTTTTTTACGGCGACACGGCCCATTTAATTGCAGATTTCGTTACCACGACGACAATGACCAATCCAGGAGAGTTAAAGTATGTCCGCTGAACACGTACTGACGATGCTGAACGAGCACGAAGTGAAGTTTGTTG (double strand) [glnA promoter probe]”, the binding [2] was “binds”.
With “GGCGCGTCTTATACTCCCACATAAGCCAGATTCAACAGCGAATACGTCTTCCCCAAATTGCCCACTTCCATACTTCCTCCTTACCAGAAATCTATCCTTAAGCTCCTTAATAACCATTTTCCTGCTAACTAAATTCATGGTTAAGGTTGCATAATGATATGCAACAAATGTATAACATTTTTCTTACCAAAAAATAAACAAAAGCGACCGACAAAAGCATTGGATTACGGCAGGAG (double strand) [kgtP promoter probe]” the binding [1] was “binds”.
“TGCGCAATTGTACTTATTGCATTTTTCTCTTCGAGGAATTACCCAGTTTCATCATCCCATTTTATTTTGCGAGCGAGCGCACACTTGTGAATTATCTCAATAGCAGTGTGAAATAACATAATTGAGCAACTGAAAGGGAGTGCCCAATATTACGACATCATCCATCACCCGCGGCATTACCTGATTATGGAGTTCAATATGCAAGCCT (double strand) [xylA promoter probe]” was tested, and the binding [2] was “no binding”.
